Data reported in the supplement of paper PMC7877785.
± gives the uncertainty stated by the source.

Test: self-splicing fitness, log relative to wild type (ln ratio); higher = more splicing; Tetrahymena group I intron in knt gene, E. coli kanamycin selection, DiMSum; sequences stand for … in CUCUCU…GGAGGGAAAAGUUAUCAGGCAUGCACCUGGUAGCUAGUCUUUAAACCAAUAGAUUGCAUCGGUUUAAAAGGCAAGACCGUCAAAUUGCGGGAAAGGGGUCAACAGCCGUUCAGUACCAAGUCUCAGGGGAAACUUUGAGAUGGCCUUGCAAAGGGUAUGGUAAUAAGCUGACGGACAUGGUCCUAACCACGCAGCCAAGUCCUAAGUCAACAGAUCUUCUGUUGAUAUGGAUGCAGUUCACAGACUAAAUGUCGGUCGGGGAAGAUGUAUUCUUCUCAUAAGAUAUAGUCGGACCUCUCCUUAAUGGGAGCUAGCGGAUGAAGUGAUGCAACACUGGAGCCGCUGGGAACUAAUUUGUAUGCGAAAGUAUAUUGAUUAGUUUUGGAGUACUCGUGGUCG
In short: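 Fitness was computed with DiMSum as the error-weighted combination of replicate fold changes, kanamycin versus none, each normalised to wild type. The library randomised all eight intron nucleotides of the P1ex region, with the intron placed in the knt kanamycin-resistance gene on pET-22b(+) in E. coli BL21(DE3). Six replicate transformations were grown overnight at 37°C or 30°C on LB agar with or without 25 μg/mL kanamycin, plus 100 μg/mL carbenicillin, 50 μM IPTG and 0.2% rhamnose. Pooled colonies were amplicon-sequenced on an Illumina HiSeq 2500.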

Sequence	self-splicing fitness (ln) (30 °C)	self-splicing fitness (ln) (37 °C)
GCGUAGCAAUAUUACGAAAA	-2.22 ± 0.41	-1.48 ± 0.25
GCGUAGCAAUAUUACGAACU	-0.546 ± 0.13	-0.322 ± 0.11
GCGUAGCAAUAUUACGACUA	0.106 ± 0.14	0.571 ± 0.14
GCGUAGCAAUAUUACGCCAU	-2.97 ± 0.31	-2.93 ± 0.47
GCGUAGCAAUAUUACGCCGC	-2.36 ± 0.42	–
GCGUAGCAAUAUUACGCGGU	-2.42 ± 0.29	-2.48 ± 0.3
GCGUAGCAAUAUUACGCGUC	-2.75 ± 0.28	-2.06 ± 0.46
GCGUAGCAAUAUUACGCUAG	-2.9 ± 0.2	-2.54 ± 0.29
GCGUAGCAAUAUUACGCUCG	-3.75 ± 0.32	-1.08 ± 0.2
GCGUAGCAAUAUUACGCUUC	–	-0.836 ± 0.35
GCGUAGCAAUAUUACGGAUA	-1.67 ± 0.13	-0.826 ± 0.13
GCGUAGCAAUAUUACGGCAU	-0.91 ± 0.061	-0.0121 ± 0.072
GCGUAGCAAUAUUACGGGAU	-1.51 ± 0.14	-1.38 ± 0.21
GCGUAGCAAUAUUACGGUAC	-2.72 ± 0.25	-1.44 ± 0.19
GCGUAGCAAUAUUACGGUCC	-1.23 ± 0.38	-1.02 ± 0.3
GCGUAGCAAUAUUACGUCAG	-1.8 ± 0.4	-1.23 ± 0.4
GCGUAGCAAUAUUACGUGGU	-3.53 ± 0.19	-3.64 ± 0.22
GCGUAGCAAUAUUACGUUCA	-0.985 ± 0.11	-0.728 ± 0.12
GCUAAGCAAUAUUACGAACG	-0.806 ± 0.068	0.22 ± 0.097
GCUAAGCAAUAUUACGAACU	-0.229 ± 0.079	0.203 ± 0.095
GCUAAGCAAUAUUACGAUCC	-0.136 ± 0.12	-0.278 ± 0.14
GCUAAGCAAUAUUACGAUCG	-1.1 ± 0.1	-0.997 ± 0.12
GCUAAGCAAUAUUACGCAAU	-1.55 ± 0.17	-1.75 ± 0.15
GCUAAGCAAUAUUACGCGCA	-0.989 ± 0.1	-0.114 ± 0.12

Sequence	self-splicing fitness (ln) (30 °C)	self-splicing fitness (ln) (37 °C)
GCUAAGCAAUAUUACGCUAC	-2.37 ± 0.15	-2.44 ± 0.26
GCUAAGCAAUAUUACGCUCC	-1.01 ± 0.13	-1.07 ± 0.18
GCUAAGCAAUAUUACGCUUC	-2.89 ± 0.18	-2.56 ± 0.23
GCUAAGCAAUAUUACGGAGG	-1.11 ± 0.14	-1.65 ± 0.29
GCUAAGCAAUAUUACGGAGU	-4.27 ± 0.27	-3.14 ± 0.26
GCUAAGCAAUAUUACGGCGC	-1.55 ± 0.11	-0.159 ± 0.16
GCUAAGCAAUAUUACGGCGU	-0.935 ± 0.068	-0.141 ± 0.091
GCUAAGCAAUAUUACGGCUA	-0.811 ± 0.093	-0.399 ± 0.11
GCUAAGCAAUAUUACGUCGG	-1.33 ± 0.099	-0.876 ± 0.13
GCUAAGCAAUAUUACGUGAU	-1.18 ± 0.073	-0.96 ± 0.11
GCUAAGCAAUAUUACGUUAC	-3.73 ± 0.26	-1.01 ± 0.16
GCUAAGCAAUAUUACGUUCA	-1.08 ± 0.07	-0.54 ± 0.092
GCUCAGCAAUAUUACGAAAU	-1.13 ± 0.11	-0.319 ± 0.12
GCUCAGCAAUAUUACGACAU	-0.812 ± 0.012	-0.159 ± 0.032
GCUCAGCAAUAUUACGACGG	-2.33 ± 0.18	-1.3 ± 0.16
GCUCAGCAAUAUUACGAGUA	-0.337 ± 0.098	-0.433 ± 0.1
GCUCAGCAAUAUUACGAGUC	-4.08 ± 0.26	–
GCUCAGCAAUAUUACGAUAC	-1.15 ± 0.13	-0.697 ± 0.17
GCUCAGCAAUAUUACGAUAU	-0.622 ± 0.084	0.0543 ± 0.09
GCUCAGCAAUAUUACGAUGU	0.0549 ± 0.065	-0.345 ± 0.077
GCUCAGCAAUAUUACGCAAG	-2.83 ± 0.42	-1.69 ± 0.23
GCUCAGCAAUAUUACGCAUA	-1.48 ± 0.18	0.283 ± 0.17
GCUCAGCAAUAUUACGCUAG	-1.03 ± 0.075	-0.659 ± 0.11
GCUCAGCAAUAUUACGGACU	0.158 ± 0.12	0.485 ± 0.19
